The values below come from ChEMBL document CHEMBL1152109, “Synthesis and biological evaluation of a new series of dihydrofolate reductase inhibitors based on the 4-(2,6-diamino-5-pyrimidinyl)alkyl-L-glutamic acid structure” (Bioorg Med Chem Lett, 1996).

Broadly, the Ki is the equilibrium dissociation constant of an inhibitor or competing ligand from its target. The term Km denotes the concentration of substrate that gives half-maximal velocity. For orientation: Vmax means the top rate of the reaction or transport when substrate is in excess.

One data set has as its target T1, Dihydrofolate reductase (Homo sapiens, UniProt P00374).
T1 sequence (P00374 whole entry): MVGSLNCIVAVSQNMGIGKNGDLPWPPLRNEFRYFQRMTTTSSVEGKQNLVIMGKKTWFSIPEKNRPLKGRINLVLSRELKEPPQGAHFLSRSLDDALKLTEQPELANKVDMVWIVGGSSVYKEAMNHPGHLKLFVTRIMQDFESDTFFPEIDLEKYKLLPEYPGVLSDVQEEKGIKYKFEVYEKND
Briefly: Binding affinity against Recombinant human dihydrofolate reductase (DHFR).

Data set [1] is described as follows: Binding affinity against human monofunctional glycinamide ribonucleotide formyl transferase (GARFT).
For data set [2], the target named is T2, Thymidylate synthase (Homo sapiens, UniProt P04818). Briefly: Binding affinity against Recombinant human thymidylate synthase (TS).
Data set [3] is described as follows: Ratio of Vmax/Km was evaluated.
The nature of data set [4]: Binding affinity against human monofunctional glycinamide ribonucleotide formyl transferase (GARFT).
For data set [5], the target named is T2, Thymidylate synthase. The data set can be described thus: Binding affinity against Recombinant human thymidylate synthase (TS).
Substrate in data set [6]: CN(Cc1cnc2nc(N)nc(N)c2n1)c1ccc(C(=O)N[C@@H](CCC(=O)O)C(=O)O)cc1
Briefly: (§1) Substrate activity against folyl-poly-glutamate synthetase isolated from hog liver. Particulars: Sus scrofa.

Substrate in data set [7]: Nc1nc2[nH]cc(CCc3ccc(C(=O)N[C@@H](CCC(=O)O)C(=O)O)cc3)c2c(=O)[nH]1
Described as §1. To be noted: Sus scrofa.

Substrate in data set [8]: Nc1nc2c(c(=O)[nH]1)C[C@@H](CCc1ccc(C(=O)N[C@@H](CCC(=O)O)C(=O)O)cc1)CN2
The description is as §1. To be noted: Sus scrofa.

Substrate in data set [9]: Nc1ncc(CCCCc2ccc(C(=O)N[C@@H](CCC(=O)O)C(=O)O)cc2)c(N)n1
The data set is described as §1. Particulars: Sus scrofa.

Substrate in data set [10]: Nc1ncc(CCCc2ccc(C(=O)N[C@@H](CCC(=O)O)C(=O)O)cc2)c(N)n1
Described as §1. Particulars: Sus scrofa.

Substrate in data set [11]: CCC(Cc1cnc2nc(N)nc(N)c2n1)c1ccc(C(=O)N[C@@H](CCC(=O)O)C(=O)O)cc1
Briefly: Substrate activity against folyl-poly-glutamate synthetase (FPGS) (isolated from hog liver). To be noted: Sus scrofa.

T2 sequence (P04818 whole entry): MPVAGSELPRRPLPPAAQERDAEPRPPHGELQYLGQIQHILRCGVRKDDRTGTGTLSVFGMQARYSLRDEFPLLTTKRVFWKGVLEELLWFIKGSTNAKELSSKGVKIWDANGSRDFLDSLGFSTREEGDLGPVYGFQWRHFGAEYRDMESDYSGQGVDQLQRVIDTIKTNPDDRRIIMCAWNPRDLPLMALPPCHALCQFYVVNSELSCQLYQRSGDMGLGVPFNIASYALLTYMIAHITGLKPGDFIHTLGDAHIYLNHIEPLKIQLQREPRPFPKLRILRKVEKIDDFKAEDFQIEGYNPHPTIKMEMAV

For the molecule `Nc1ncc(CCCc2ccc(C(=O)N[C@@H](CCC(=O)O)C(=O)O)cc2)c(N)n1`, the values for the Ki (at Dihydrofolate reductase; in data set [1]; at Thymidylate synthase [2]) were 0.12 nM, 54.3 µM and above 5 µM, respectively.
For the molecule `Nc1nc2[nH]cc(CCc3ccc(C(=O)N[C@@H](CCC(=O)O)C(=O)O)cc3)c2c(=O)[nH]1`, in data set [3], the Ratio was 381.
With `CCC(Cc1cnc2nc(N)nc(N)c2n1)c1ccc(C(=O)N[C@@H](CCC(=O)O)C(=O)O)cc1` (stereo partly drawn), the Ratio in data set [3] was determined as 19.
Still for that read-out and setting: the same measure for `Nc1nc2c(c(=O)[nH]1)CC(CCc1ccc(C(=O)N[C@@H](CCC(=O)O)C(=O)O)cc1)CN2` (single isomer, unassigned): 60.
Regarding `Nc1ncc(CCCCc2ccc(C(=O)N[C@@H](CCC(=O)O)C(=O)O)cc2)c(N)n1`, the results for the Ki (on Dihydrofolate reductase; in [4]; on Thymidylate synthase [5]) were 0.005 nM, 62 µM and above 5 µM, respectively. In [3], the Ratio turned out to be 34.
On to `CN(Cc1cnc2nc(N)nc(N)c2n1)c1ccc(C(=O)N[C@@H](CCC(=O)O)C(=O)O)cc1`, for which, in data set [3], the Ratio is 4.3.

B1: Folylpolyglutamate synthase, mitochondrial (Homo sapiens), Q05932 (protein)
chain: MSRARSHLRAALFLAAASARGITTQVAARRGLSAWPVPQEPSMEYQDAVRMLNTLQTNAGYLEQVKRQRGDPQTQLEAMELYLARSGLQVEDLDRLNIIHVTGTKGKGSTCAFTECILRSYGLKTGFFSSPHLVQVRERIRINGQPISPELFTKYFWRLYHRLEETKDGSCVSMPPYFRFLTLMAFHVFLQEKVDLAVVEVGIGGAYDCTNIIRKPVVCGVSSLGIDHTSLLGDTVEKIAWQKGGIFKQGVPAFTVLQPEGPLAVLRDRAQQISCPLYLCPMLEALEEGGPPLTLGLEGEHQRSNAALALQLAHCWLQRQDRHGAGEPKASRPGLLWQLPLAPVFQPTSHMRLGLRNTEWPGRTQVLRRGPLTWYLDGAHTASSAQACVRWFRQALQGRERPSGGPEVRVLLFNATGDRDPAALLKLLQPCQFDYAVFCPNLTEVSSTGNADQQNFTVTLDQVLLRCLEHQQHWNHLDEEQASPDLWSAPSPEPGGSASLLLAPHPPHTCSASSLVFSCISHALQWISQGRDPIFQPPSPPKGLLTHPVAHSGASILREAAAIHVLVTGSLHLVGGVLKLLEPALSQ
B1: the Michaelis constant (Km) in data set [6] was 116 µM; in [7], 1.9 µM; in [8], 16.4 µM; in data set [9] it was 20 µM; in [10], 5.1 µM; in data set [11], 13.3 µM. Further, the maximum rate (Vmax) in data set [6] worked out at 498 nM/h/mg; in data set [7] it was 725 nM/h/mg; in data set [8], 977 nM/h/mg; in [9], 685 nM/h/mg; in [10] it was 758 nM/h/mg; in [11], 258 nM/h/mg.
